Source: patent US20150233949A1, “DETECTION AND MODULATION OF CYTOCHROME C ACETYLATION” (President and Fellows of Harvard College, priority 2008, published 2015)

Tested on: cytochrome c
Experiment: Tandem mass spectrometry of cytochrome c acetylation in transfected SH-SY5Y cells
Type: cell-based, mouse
Conditions: hSIRT3 cotransfected with cytochrome c in SH-SY5Y cells; FIG. 3
Experimental: SH-SY5Y cells were cultured in Dulbecco's Modified Eagle's Medium (DMEM) supplemented with 10% Fetal Calf Serum (FCS). SH-SY5Y cells were transfected with Lipofectamine 2000 (Invitrogen, Carlsbad, Calif.). Granule neuron cultures were prepared from cerebella of postnatal day 5 mouse pups. Neurons were placed on polyornithine-coated 96-well plates and grown in Basal Medium Eagle (BME) (Sigma, St. Louis, Mo.) supplemented with 10% calf serum (Hyclone Laboratories, Logan, Utah), 25 mM KCl, 2 mM glutamine, penicillin, and streptomycin. One day after cultures were prepared they were treated with 10 μM of the antimitotic agent cytosine-D-arabinofuranoside (Sigma, St. Louis, Mo.) to prevent the proliferation of non-neuronal cells.
A large-scale Flag-immunoprecipitation followed by elution with 3× Flag peptide was performed on cell extracts from 10×15 cm-plates of SH-SY5Y cells transfected with pcDNA-mouse cytochrome c-Flag+/−pcDNA-hSIRT3-HA. Purified proteins were separated by SDS-PAGE, and the band corresponding to cytochrome c was excised and analyzed by MS/MS.

B1: hSIRT3: human SIRT3 deacetylase expressed from transfected pcDNA-hSIRT3-HA vector (protein)
chain: MAFWGWRAAAALRLWGRVVERVEAGGGVGPFQACGCRLVLGGRDDVSAGLRGSHGARGEPLDPARPLQRPPRPEVPRAFRRQPRAAAPSFFFSSIKGGRRSISFSVGASSVVGSGGSSDKGKLSLQDVAELIRARACQRVVVMVGAGISTPSGIPDFRSPGSGLYSNLQQYDLPYPEAIFELPFFFHNPKPFFTLAKELYPGNYKPNVTHYFLRLLHDKGLLLRLYTQNIDGLERVSGIPASKLVEAHGTFASATCTVCQRPFPGEDIRADVMADRVPRCPVCTGVVKPDIVFFGEPLPQRFLLHVVDFPMADLLLILGTSLEVEPFASLTEAVRSSVPRLLINRDLVGPLAWHPRSRDVAQLGDVVHGVESLVELLGWTEEMRDLVQRETGKLDGPDK
modifications: left off: small tags and cut ends
notes: human SIRT3 deacetylase expressed from transfected pcDNA-hSIRT3-HA vector
acetylation of residues K40 and K74 of cytochrome c: no longer detected
